# From patent US20200363410A1
# Legend:
# [1] = biological target: biotinylated MPT63 (Rv1926c) polypeptide (M. tuberculosis H37Rv)
# [2] = biological target: biotinylated MPT64 (Rv1980c) polypeptide (M. tuberculosis H37Rv)
# [3] = biological target: biotinylated Ag85A (Rv3804c) polypeptide (M. tuberculosis H37Rv)
# [4] = biological target: biotinylated Ag85B (Rv1886c) polypeptide (M. tuberculosis H37Rv) (UniProt A5U3Q3)
# [5] = biological target: biotinylated MTC28 (Rv0040c) polypeptide (M. tuberculosis H37Rv)
# Sequence of streptavidin (P22629 37-163 limits assumed): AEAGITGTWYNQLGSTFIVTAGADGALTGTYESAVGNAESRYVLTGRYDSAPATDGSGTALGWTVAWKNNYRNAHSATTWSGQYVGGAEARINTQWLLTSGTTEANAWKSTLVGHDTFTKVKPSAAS
substance,measurement,setting,value
streptavidin (from UniProt P22629 37-163),Extent of biotinylation (share of protein adsorbed on streptavidin beads),[1],99.9%
same,Fold reduction in protein reactivity after adsorption,[1],1000 fold
same,Extent of biotinylation (share of protein adsorbed on streptavidin beads),[2],99.8%
same,Fold reduction in protein reactivity after adsorption,[2],500 fold
same,Extent of biotinylation (share of protein adsorbed on streptavidin beads),[3],99.9%
same,Fold reduction in protein reactivity after adsorption,[3],4000 fold
same,Extent of biotinylation (share of protein adsorbed on streptavidin beads),[4],99.9%
same,Fold reduction in protein reactivity after adsorption,[4],1000 fold
same,Extent of biotinylation (share of protein adsorbed on streptavidin beads),[5],99.8%
same,Fold reduction in protein reactivity after adsorption,[5],500 fold
